Test results published in US6322962A, “Sterol-regulated Site-1 protease and assays of modulators thereof” (Board of Regents, The University of Texas System, priority 1999, dated 2001).
Entries after “also recorded” stand apart in the source; their conditions may differ. Peptide text beside a SMILES is read from it. * marks the point of attachment. AMC = Cc1cc(=O)oc2cc(N*)ccc12

Key:
SKI-1 = settings: Seidah et al., 1999, preliminary data; cited from earlier work
purified S1P(983)-C = target: T1, purified S1P(983)-C (Cricetulus griseus, UniProt Q9Z2A8, T875N); experiment: Fluorogenic peptide assay for S1P activity (cleavage of MCA-conjugated peptides); type: biochemical, hamster
T1 construct: Truncated S1P (amino acids 1-983); GGR linker (NotI site); made in house; host or cells: SRD-12B cells (mutant CHO cells lacking S1P) stably transfected with pCMV-S1P(983)-Myc-His (TR-3117, 'S1P(983) cells'); secreted into the medium and purified on Ni-NTA
T1 sequence (Q9Z2A8 187-983 T875N): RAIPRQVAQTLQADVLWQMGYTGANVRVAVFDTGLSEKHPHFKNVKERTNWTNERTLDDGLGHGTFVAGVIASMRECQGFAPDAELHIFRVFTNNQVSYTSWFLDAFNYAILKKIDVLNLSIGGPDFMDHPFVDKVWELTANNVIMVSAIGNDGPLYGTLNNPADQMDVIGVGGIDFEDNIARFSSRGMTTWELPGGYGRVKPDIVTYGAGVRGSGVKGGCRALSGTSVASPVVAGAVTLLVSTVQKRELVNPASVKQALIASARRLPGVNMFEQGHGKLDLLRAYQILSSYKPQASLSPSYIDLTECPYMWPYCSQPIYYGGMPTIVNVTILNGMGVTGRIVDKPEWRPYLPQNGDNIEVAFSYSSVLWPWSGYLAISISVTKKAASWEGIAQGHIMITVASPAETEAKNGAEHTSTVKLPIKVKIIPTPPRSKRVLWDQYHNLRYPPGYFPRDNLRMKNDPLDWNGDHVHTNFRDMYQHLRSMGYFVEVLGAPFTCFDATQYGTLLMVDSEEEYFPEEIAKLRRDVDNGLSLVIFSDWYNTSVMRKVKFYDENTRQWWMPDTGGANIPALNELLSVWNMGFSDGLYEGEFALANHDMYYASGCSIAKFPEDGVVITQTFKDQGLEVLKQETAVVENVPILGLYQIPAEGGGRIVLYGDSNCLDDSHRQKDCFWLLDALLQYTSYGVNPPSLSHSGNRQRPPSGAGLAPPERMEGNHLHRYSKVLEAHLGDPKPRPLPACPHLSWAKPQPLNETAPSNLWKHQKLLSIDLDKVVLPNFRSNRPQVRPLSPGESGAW
Experimental: Fluorogenic Peptide Assay for S1P Activity
S1P activity was measured fluorometrically with MCA-conjugated peptidyl substrates. Each reaction was carried out in 0.2 ml of assay buffer (25 mM Tris, 25 mM Mes, 25 mM acetic acid, and 1 mM CaCl2 adjusted to pH 8.0 with concentrated NaOH). Reactions contained MCA-peptide (final concentration 100 μM, added in 2 μl DMSO) and […] of purified S1P(983)-C. After incubation for 0.5-5 h at 37° C., each reaction was terminated by addition of 1 ml of ice-cold 5 mM sodium EDTA. The liberated 7-amino-4-methyl-coumarin (AMC) was measured with a Perkin-ElmerLS-30 luminescence spectrometer (360 nm excitation, 460 nm emission). A standard curve of fluorescence intensity was generated with different concentrations of AMC (Promega).
Similar substrates have been used to assay furin, prohormone convertases, and other subtilisin-related enzymes (Nakayama, 1997). […] The sequence of this peptide corresponds to the sequence at Site-B of S1P, which is known to be cleaved by S1P in an autocatalytic reaction. Fluorescence rose linearly with time for 5 h. […] This differs from the observations with furin and the prohormone convertases, whose pH optima are generally in the range of 6-7 (Nakayama, 1997).
The indicated fluorogenic peptide-MCA (100 μM) was incubated with 3 μg of purified S1P(983)-C at 37° C. for 5 h. The S1P activity of Ac-VFRSLK-MCA (SEQ ID NO:13, 930 pmol per min/mg protein) was set at 1.0, and the activity of the other substrates was expressed relative to this value. Each value represents the average of duplicate incubations, which varied from each other by <10%.

SREBP-2 = experiment: Immunoblot of cleavage of HSV-tagged SREBP-2 in transfected SRD-12B cells; type: cell-based, hamster; settings: SRD-12B cells, HSV-tagged SREBP-2
Experimental: On day 0, SRD-12B cells were set up at a density of 6×10^5 cells/60-mm dish in medium B. On day 1, cells were transfected with 4 μg of the indicated plasmid DNA plus 12 μl of LipofectAMINE™ reagent (Life Technologies) according to the manufacturer's instructions with modifications as follows. LipofectAMINE™/DNA complexes were formed in 1 ml of serum-free medium for 15 min at room temperature, and 0.5 ml were added to 1 ml of serum-free medium per dish. […] After incubation at 37 ° C. for 20 h, the cells received N-acetyl-leucinal-leucinal norleucinal (ALLN) at a final concentration of 25 μg/ml. […] After boiling for 5 min, the proteins were subjected to SDS-PAGE and transferred to Hybond-C Extra nitrocellulose filters (Amersham). The filters were incubated with the antibodies described in the figure legends. […] Gels were calibrated with prestained molecular weight markers (New England Biolabs, Beverly, Mass.). Filters were exposed to X-Omat Blue XB-1 film (Kodak, Rochester, N.Y.) with intensifying screens at room temperature for the indicated time.
Cell membranes and nuclear extracts were subjected to electrophoresis and blotted with an antibody against the HSV epitope-tag.
In a more direct test for S1P catalytic activity, the mutant plasmids were transfected into the SRD-12B cells together with pTK-HSV-BP2. Membranes and nuclear extracts were subjected to SDS-PAGE and blotted with an antibody against the HSV-tagged SREBP-2 (FIG. 9B).
The inventors cotransfected cDNAs encoding wild-type S1P or one of the mutants. Cell membrane pellets and nuclear extracts were subjected to SDS-PAGE. and the NH2 -terminus of SREBP-2 was visualized by immunoblotting with anti-HSV (FIG. 16A).

[1] = system: PLAP-BP2(513-1141) in SRD-12B cells; experiment: Secreted alkaline phosphatase assay in SRD-12B cells transfected with wild-type or mutant S1P cDNAs; type: cell-based, hamster; settings: Myc-tagged S1P cDNA
[2] = target: HSV-tagged human SREBP-2, wild-type (human) (UniProt Q12772)

## 27-amino acid synthetic peptide: 27-amino acid synthetic peptide corresponding to the luminal loop sequence of human SREBP-2 (GGAHDSDQHPHSGSGRSVLSFESGSGG)
SKI-1
  cleavage by SKI-1 culture medium: able to cleave

## CC(=O)N[C@@H](CCCNC(=N)N)C(=O)N[C@@H](CO)C(=O)N[C@H](C(=O)N[C@@H](CC(C)C)C(=O)Nc1ccc2c(C)cc(=O)oc2c1)C(C)C [Ac-RSVL-MCA, Ac-Arg-Ser-Val-Leu-MCA] (Ac-RSVL-{AMC})
SKI-1
  cleavage by SKI-1 culture medium: unable to cleave
Purified S1P(983)-C; 100 μM peptide-MCA, 3 μg S1P(983)-C, 37° C., 5 h, Ac-VFRSLK-MCA set at 1.0
  Relative Activity: < 0.1
Purified S1P(983)-C; result in words
  cleavage of the peptide: did not cleave; also recorded: does not cleave

B1: wild-type S1P: hamster Site-1 protease expressed from cDNA (protein, UniProt Q9Z2A8 187-1052, looked up)
Membrane-bound transcription …: RAIPRQVAQTLQADVLWQMGYTGANVRVAVFDTGLSEKHPHFKNVKERTNWTNERTLDDGLGHGTFVAGVIASMRECQGFAPDAELHIFRVFTNNQVSYTSWFLDAFNYAILKKIDVLNLSIGGPDFMDHPFVDKVWELTANNVIMVSAIGNDGPLYGTLNNPADQMDVIGVGGIDFEDNIARFSSRGMTTWELPGGYGRVKPDIVTYGAGVRGSGVKGGCRALSGTSVASPVVAGAVTLLVSTVQKRELVNPASVKQALIASARRLPGVNMFEQGHGKLDLLRAYQILSSYKPQASLSPSYIDLTECPYMWPYCSQPIYYGGMPTIVNVTILNGMGVTGRIVDKPEWRPYLPQNGDNIEVAFSYSSVLWPWSGYLAISISVTKKAASWEGIAQGHIMITVASPAETEAKNGAEHTSTVKLPIKVKIIPTPPRSKRVLWDQYHNLRYPPGYFPRDNLRMKNDPLDWNGDHVHTNFRDMYQHLRSMGYFVEVLGAPFTCFDATQYGTLLMVDSEEEYFPEEIAKLRRDVDNGLSLVIFSDWYNTSVMRKVKFYDENTRQWWMPDTGGANIPALNELLSVWNMGFSDGLYEGEFALANHDMYYASGCSIAKFPEDGVVITQTFKDQGLEVLKQETAVVENVPILGLYQIPAEGGGRIVLYGDSNCLDDSHRQKDCFWLLDALLQYTSYGVTPPSLSHSGNRQRPPSGAGLAPPERMEGNHLHRYSKVLEAHLGDPKPRPLPACPHLSWAKPQPLNETAPSNLWKHQKLLSIDLDKVVLPNFRSNRPQVRPLSPGESGAWDIPGGIMPGRYNQEVGQTIPVFAFLGAMVALAFFVVQISKAKSRPKRRRPRAKRPQLTQQTHPPRTPSV
SREBP-2
  cleavage of SREBP-2 by S1P or S1P mutant: maximal cleavage
SREBP-2; listed as Wild-type S1P
  cleavage of SREBP-2 by S1P or S1P mutant: restored cleavage
[1]
  PLAP activity in the culture medium: increased

B2: 5411A: control S1P mutant, serine near catalytic triad mutated to alanine (protein, UniProt Q9Z2A8 187-1052, looked up, variant S411A)
Membrane-bound transcription …: RAIPRQVAQTLQADVLWQMGYTGANVRVAVFDTGLSEKHPHFKNVKERTNWTNERTLDDGLGHGTFVAGVIASMRECQGFAPDAELHIFRVFTNNQVSYTSWFLDAFNYAILKKIDVLNLSIGGPDFMDHPFVDKVWELTANNVIMVSAIGNDGPLYGTLNNPADQMDVIGVGGIDFEDNIARFSSRGMTTWELPGGYGRVKPDIVTYGAGVRGSGVKGGCRALAGTSVASPVVAGAVTLLVSTVQKRELVNPASVKQALIASARRLPGVNMFEQGHGKLDLLRAYQILSSYKPQASLSPSYIDLTECPYMWPYCSQPIYYGGMPTIVNVTILNGMGVTGRIVDKPEWRPYLPQNGDNIEVAFSYSSVLWPWSGYLAISISVTKKAASWEGIAQGHIMITVASPAETEAKNGAEHTSTVKLPIKVKIIPTPPRSKRVLWDQYHNLRYPPGYFPRDNLRMKNDPLDWNGDHVHTNFRDMYQHLRSMGYFVEVLGAPFTCFDATQYGTLLMVDSEEEYFPEEIAKLRRDVDNGLSLVIFSDWYNTSVMRKVKFYDENTRQWWMPDTGGANIPALNELLSVWNMGFSDGLYEGEFALANHDMYYASGCSIAKFPEDGVVITQTFKDQGLEVLKQETAVVENVPILGLYQIPAEGGGRIVLYGDSNCLDDSHRQKDCFWLLDALLQYTSYGVTPPSLSHSGNRQRPPSGAGLAPPERMEGNHLHRYSKVLEAHLGDPKPRPLPACPHLSWAKPQPLNETAPSNLWKHQKLLSIDLDKVVLPNFRSNRPQVRPLSPGESGAWDIPGGIMPGRYNQEVGQTIPVFAFLGAMVALAFFVVQISKAKSRPKRRRPRAKRPQLTQQTHPPRTPSV
[1]
  PLAP activity relative to wild-type levels: 50-70 % of wild-type levels

B3: Myc-S1P(Site-B mutant) (enzyme)
chain: DGGRSEQKLISEEDLNGEQKLISEEDLNGEQKLISEEDLNSSGRLGKKAFEKASCPSCSHLTLKVEFSSTVVEYEYIVAFNGYFTAKARNSFISSALKSSEVDNWRIIPRNNPSSDYPSDFEVIQIKEKQKAGLLTLEDHPNIKRVTPQRKVFAAAAFAESDPIVPCNETRWSQKWQSSRPLRRASLSLGSGFWHATGRHSSRRLLRAIPRQVAQTLQADVLWQMGYTGANVRVAVFDTGLSEKHPHFKNVKERTNWTNERTLDDGLGHGTFVAGVIASMRECQGFAPDAELHIFRVFTNNQVSYTSWFLDAFNYAILKKIDVLNLSIGGPDFMDHPFVDKVWELTANNVIMVSAIGNDGPLYGTLNNPADQMDVIGVGGIDFEDNIARFSSRGMTTWELPGGYGRVKPDIVTYGAGVRGSGVKGGCRALSGTSVASPVVAGAVTLLVSTVQKRELVNPASVKQALIASARRLPGVNMFEQGHGKLDLLRAYQILSSYKPQASLSPSYIDLTECPYMWPYCSQPIYYGGMPTIVNVTILNGMGVTGRIVDKPEWRPYLPQNGDNIEVAFSYSSVLWPWSGYLAISISVTKKAASWEGIAQGHIMITVASPAETEAKNGAEHTSTVKLPIKVKIIPTPPRSKRVLWDQYHNLRYPPGYFPRDNLRMKNDPLDWNGDHVHTNFRDMYQHLRSMGYFVEVLGAPFTCFDATQYGTLLMVDSEEEYFPEEIAKLRRDVDNGLSLVIFSDWYNTSVMRKVKFYDENTRQWWMPDTGGANIPALNELLSVWNMGFSDGLYEGEFALANHDMYYASGCSIAKFPEDGVVITQTFKDQGLEVLKQETAVVENVPILGLYQIPAEGGGRIVLYGDSNCLDDSHRQKDCFWLLDALLQYTSYGVNPPSLSHSGNRQRPPSGAGLAPPERMEGNHLHRYSKVLEAHLGDPKPRPLPACPHLSWAKPQPLNETAPSNLWKHQKLLSIDLDKVVLPNFRSNRPQVRPLSPGESGAWDIPGGIMPGRYNQEVGQTIPVFAFLGAMVALAFFVVQISKAKSRPKRRRPRAKRPQLTQQTHPPRTPSV
[2]
  cleaved nuclear form of HSV-tagged SREBP-2 on immunoblot (SRD-12B cells) (fold higher levels of expression): 10
